Assay [1] has as its target Arabidopsis SCE1 fused to CLuc (split-luciferase assay) (UniProt Q42551). Nature of the assay: split-luciferase complementation assay in planta. The conditions noted are these: Rep^sim NLuc + CLuc SCE1; n = 12; parent: est. 0.36; read off a plot.
For assay [2], the target named is Arabidopsis SUMO1^ΔGG fused to CLuc (split-luciferase assay) (UniProt P55852). Nature of the assay: split-luciferase complementation assay in planta. As to conditions: Rep^sim NLuc + CLuc SUMO1^ΔGG; n = 12; parent: est. 0.29; read off a plot.
Chain of UniProt P55852 (P55852 1-91, stated change not applied): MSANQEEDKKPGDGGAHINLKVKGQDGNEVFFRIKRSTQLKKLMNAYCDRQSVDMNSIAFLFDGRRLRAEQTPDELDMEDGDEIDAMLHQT

Our source for the response (fraction of total signal) values is article PMC12724345.

Chain of UniProt Q42551 (Q42551 whole entry, the tested form may be a part): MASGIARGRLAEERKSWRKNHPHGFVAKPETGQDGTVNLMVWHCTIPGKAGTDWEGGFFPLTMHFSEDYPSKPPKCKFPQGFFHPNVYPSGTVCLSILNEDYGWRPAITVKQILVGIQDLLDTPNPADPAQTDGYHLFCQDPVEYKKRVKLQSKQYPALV

For the substance “Rep of TYLCV fused to NLuc (split-luciferase assay) I215A; V216A; I217A”, the response (fraction of total signal) in assay [1] was found to be 0.075; in assay [2], 0.08.
